From patent publication US6946255 (KO OKUMURA, dated 2005)

T1: 10-mer peptide consisting of residues 1 to 10 of SEQ ID NO: 31 (immobilized on the tip of a Pepset pin)
T1 construct: One of 44 overlapping 10-mer peptides of the extracellular domain of the Fas ligand
T1 peptide: LSHKVYMRNS

T2: 10-mer peptide consisting of residues 5 to 14 of SEQ ID NO: 31 (immobilized on the tip of a Pepset pin)
T2 construct: One of 44 overlapping 10-mer peptides of the extracellular domain of the Fas ligand
T2 peptide: VYMRNSKYPQ

T3: monkey Fas ligand on activated rhesus monkey peripheral blood mononuclear cell surfaces (rhesus monkey, UniProt P63307 1-280)
T3 construct: whole, on cells; also called Fas ligand on monkey cell surfaces
T3 sequence (looked up): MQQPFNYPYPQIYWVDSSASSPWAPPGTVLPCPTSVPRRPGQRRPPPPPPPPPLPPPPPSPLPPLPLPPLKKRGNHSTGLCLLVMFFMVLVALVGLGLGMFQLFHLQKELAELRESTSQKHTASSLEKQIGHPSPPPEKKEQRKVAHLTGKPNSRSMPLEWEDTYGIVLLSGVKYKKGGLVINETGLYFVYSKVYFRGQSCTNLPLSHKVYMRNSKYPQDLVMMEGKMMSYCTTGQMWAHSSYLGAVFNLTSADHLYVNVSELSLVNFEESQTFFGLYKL

T4: human Fas expressed on WR19L cells (human, UniProt P25445 26-335)
T4 sequence (looked up): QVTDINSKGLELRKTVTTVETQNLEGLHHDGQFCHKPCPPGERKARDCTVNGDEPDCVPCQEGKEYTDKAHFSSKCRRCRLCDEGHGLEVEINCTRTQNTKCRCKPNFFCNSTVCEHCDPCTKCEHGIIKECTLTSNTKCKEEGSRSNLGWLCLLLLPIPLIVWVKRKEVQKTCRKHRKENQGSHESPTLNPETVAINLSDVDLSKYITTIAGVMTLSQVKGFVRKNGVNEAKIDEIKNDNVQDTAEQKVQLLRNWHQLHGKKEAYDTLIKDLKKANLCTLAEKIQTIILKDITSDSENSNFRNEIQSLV

B1: soluble human Fas ligand molecule (ligand, UniProt P48023 130-281, looked up)
chain: QIGHPSPPPEKKELRKVAHLTGKSNSRSMPLEWEDTYGIVLLSGVKYKKGGLVINETGLYFVYSKVYFRGQSCNNLPLSHKVYMRNSKYPQDLVMMEGKMMSYCTTGQMWARSSYLGAVFNLTSADHLYVNVSELSLVNFEESQTFFGLYKL

Legend:
[1] = target: B1; test: cell-based or functional assay
[2] = target: T1, 10-mer peptide consisting of residues 1 …; test: Pepset pin ELISA, HRP-labeled anti-mouse IgG
Description: (§1) ⑨ After the pin of the Pepset was taken out of the well of the plate, 2N H_2SO_4 was added in an amount of 50 μl to each well to stop the reaction.

[3] = target: T2, 10-mer peptide consisting of residues 5 …; test: Pepset pin ELISA, HRP-labeled anti-mouse IgG
Description: as §1

[4] = target: T3, monkey Fas ligand on activated rhesus …; test: flow cytometry (FACScan) on activated rhesus monkey PBMC, 1 µg antibody, PE-anti-mouse Ig's
Description: Five milliliters of peripheral blood were collected from a rhesus monkey using a heparinized syringe. After the blood was diluted to ½ with PBS, its lymphocyte fraction was recovered by the specific gravity centrifugation using Separate L. These monkey peripheral blood mononuclear lymphocytes were cultured for 2 days in a 10% FCS•RPMI 1640 medium containing 10 μg/ml of Con A to activate them. Thereafter, the cells were recovered by centrifugation, and then cultured further for a week in a 10% FCS•RPMI 1640 medium containing 50 units/ml of human IL-2 (interleukin-2). After a week, PMA and ionomycin were added to give concentrations of 10 ng/ml and 500 ng/ml, respectively, to activate the cells further for 4 hours. At this time, BB94 (matrix protease inhibitor) was added in a proportion of 10 μM at the same time. The Fas ligand was expressed in a large amount on the lymphocytes by these activation processes. After 4 hours, the cell were collected to analyze them by flow cytometry. After collecting the cells, the number of cells was first counted to adjust the cells to 1 ×10^6 cells/ml with PBS. Thereafter, the cells were placed in portions of 1 ml into tubes (Farcon No-2008), and 100 μl of control PBS, 1 μg of NOK1 antibody (100 μl of one diluted to a concentration of 10 μg/ml with PBS), 1 μg of monoclonal antibody NOK2 (similarly, 100 μl at a concentration of 10 μg/ml) and 1 μg of monoclonal antibody NOK3 (similarly, 100 μl at a concentration of […]) were separately placed in the tubes, thereby conducting a reaction for 30 minutes on an ice bath.
After the respective cultures were centrifugally washed twice with PBS. 1 µl of PE-anti-mouse Ig's were placed in the tubes to conduct a reaction further for 30 minutes on the ice bath. After the cultures were washed with PBS and separately suspended in 200 µl of PBS, they were analyzed by FACScan.

[5] = target: T4, human Fas expressed on WR19L cells; test: cell-based or functional assay

| binding result [2] | binding result [3] | binding result [4] | Binder | Survival rate [1] [%] | Survival rate [5] [%] |
| --- | --- | --- | --- | --- | --- |
|  |  |  | monoclonal antibody NOK5 (produced by Hybridoma NOK5, FERM BP-5048) (antibody, V domains shown) VH: VQLQESGAEPAKPGASVKMSCKASGYTFTTYWMHWVKQRPGQGLEWIGYINPSSGYTEYNQKFKDKATLTADKSSSTAYMQLISLTSEDSAVYYCARRGNYYYFDYWGQGTTVTVSS VL: DVLMTQTPKFLPVSAGDRVTMTCKASQSVGNNVAWYQQKPGQSPKLLIYYTSNRYTGVPDRFTGSGSGTDFTFTISSVQVEDLAVYFCQQHYSSPYTFGSGTKLE | 98.2 |  |
| binds | binds | binds | monoclonal antibody NOK2 (produced by Hybridoma NOK2, FERM BP-5045) (antibody, V domains shown, also called NOK2 antibody) VH: VQLQQSGAELVRPGTSVKMSCKAAGYTFTNYWIGWVKQRPGHGLEWIGYLYPGGLYTNYNEKFKGKATLTADTSSSTAYMQLSSLTSEDSAIYYCARYRDYDYAMDYWGQGTTVTVSS VL: DVLMTQTPLSLPVNIGDQASISCKSTKSLLNSDGFTYLGWCLQKPGQSPQLLIYLVSNRFSGVPDRFSGSGSGTDFTLKISRVEAEDLGVYYCFQSNYLPLTFGSGTKLEIKR | 105 |  |
|  |  |  | monoclonal antibody NOK4 (produced by Hybridoma NOK4, FERM BP-5047) (antibody, V domains shown) VH: VQLQESGPGLVKPSQSLSLTCSVTGYSITSGYYWNWIRQFPGNKLEWMGYISYDGSNNYNPSLKNRISITRDTSKNQFFLKLNSVTTEDTATYYCAVYYYDGSSFDYWGQGTTVTVSS VL: DIVLTQSPASLAVSLRQRATISCRASEGVDSYGISFMHWYQQKPGQPPKLLIYRASYLKSGVPARFSGSGSRTDFTLTIDPVEADDAATYYCQQNNEDPWTFGGGTKLEIKR | 110 |  |
|  |  | binds | monoclonal antibody NOK3 (produced by Hybridoma NOK3, FERM BP-5046) (antibody, V domains shown, also called NOK3 antibody) VH: VKLQESGPELVKPGASVKISCKASGYAFSSSWMNWVKQRPGKGLEWIGRIYPVNGDTNYNGKFKGKATLTADKSSSTAYMQLSSLTSEDSAVYFCATDGYWYFDVWGQGTTVTVSS VL: NIVMTQSPKSMSMSVGERVTLSCKASENVDIYVSWYQQKPEQSPKLLIYGTSNRYTGVPDRFTGSGSATDFTLTISNVQAEDLSDYYCVQSYSYPWTFGGGTKLEIKR | 101 |  |
|  |  | binds | monoclonal antibody NOK1 (produced by Hybridoma NOK1, FERM BP-5044) (antibody, V domains shown, Used as hybridoma culture supernatant, as antibody purified from ascites, biotin-labelled, or coupled to Sepharose beads; also called NOK1 antibody; biotinized monoclonal antibody NOK1) VH: VQLQESGPELVKPGASVKISCKASGYAFSSSWMNWVKQRPGKGLEWIGRIYPGDGDTNDNGKFKGKATLTADKSSSTAYMQLSSLTSEDSAVYFCARSYYYDGSPWFTYWGQGTTVTVSS VL: DIQMTQSPSSLSASLGDRVTISCRASQDISNYLNWYQQKPDGTVKLLIYYTSRLHSGVPSRFSGSGSGTDYSLTISNLEPEDIATYFCQQYSEFPWTFGGGTKLEIKR | 99.3 |  |
|  |  |  | B1 |  | 3.5 |
